From the supplement of paper PMC7125110
± gives the standard error. Variants at the floor of the assay were thinned out.

B1: glmS ribozyme (parent)
chain: AUAAAAGCGCCAGAACUACAGAAAUGUAGUUGACGAGGAGGAGGUUUAUCGAAUUUUCGGCGGAUGCCUCCAAA

Assays:
Settings in all cases: with glucosamine-6-phosphate
[1] = variants of: B1; assay: self-cleavage kobs at 40 uM GlcN6P; higher = faster cleavage; RNA array
Procedure, shortened: (§1)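 Sequenced MiSeq chips were the platform: E. coli RNA polymerase transcribed barcoded ribozyme variants on them in situ, and a hybridised Cy3 probe tracked these at 37 °C. After glucosamine-6-phosphate (40 μM to 10 mM) in HEPES/KCl/Mg(OAc)2 buffer was flowed in, tiles were imaged over ~14 h. Signals normalised to baseline and to non-cleaving reference variants were reduced to per-tile medians and fit to one- or two-exponential decays to obtain kobs. kcat and KM were derived through weighted Michaelis–Menten fits across concentrations.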

[2] = variants of: B1; assay: self-cleavage kobs at 160 uM GlcN6P; higher = faster cleavage; RNA array
Procedure, shortened: as §1

[3] = variants of: B1; assay: self-cleavage kobs at 2500 uM GlcN6P; higher = faster cleavage; RNA array
Procedure, shortened: as §1

[4] = variants of: B1; assay: self-cleavage kobs at 640 uM GlcN6P; higher = faster cleavage; RNA array
Procedure, shortened: as §1

[5] = variants of: B1; assay: self-cleavage kobs at 10000 uM GlcN6P; higher = faster cleavage; RNA array
Procedure, shortened: as §1

G7U C8A
self-cleavage kobs at 40 uM GlcN6P [1]: < 1e-05 s⁻¹ | self-cleavage kobs at 160 uM GlcN6P [2]: < 1e-05 s⁻¹ | self-cleavage kobs at 2500 uM GlcN6P [3]: < 1e-05 s⁻¹

G9U A12G G32U G43U U45A
self-cleavage kobs at 40 uM GlcN6P [1]: < 1e-05 s⁻¹

G35A G40C
self-cleavage kobs at 40 uM GlcN6P [1]: < 1e-05 s⁻¹ | self-cleavage kobs at 160 uM GlcN6P [2]: < 1e-05 s⁻¹ | self-cleavage kobs at 640 uM GlcN6P [4]: < 1e-05 s⁻¹ | self-cleavage kobs at 2500 uM GlcN6P [3]: < 1e-05 s⁻¹ | self-cleavage kobs at 10000 uM GlcN6P [5]: < 1e-05 s⁻¹

G9U A15C G44C U47C
self-cleavage kobs at 40 uM GlcN6P [1]: < 1e-05 s⁻¹ | self-cleavage kobs at 2500 uM GlcN6P [3]: < 1e-05 s⁻¹ | self-cleavage kobs at 10000 uM GlcN6P [5]: < 1e-05 s⁻¹

G35U G66U
self-cleavage kobs at 40 uM GlcN6P [1]: < 1e-05 s⁻¹ | self-cleavage kobs at 160 uM GlcN6P [2]: < 1e-05 s⁻¹ | self-cleavage kobs at 640 uM GlcN6P [4]: < 1e-05 s⁻¹ | self-cleavage kobs at 2500 uM GlcN6P [3]: < 1e-05 s⁻¹ | self-cleavage kobs at 10000 uM GlcN6P [5]: < 1e-05 s⁻¹

A14C C34U G60U
self-cleavage kobs at 40 uM GlcN6P [1]: < 1e-05 s⁻¹ | self-cleavage kobs at 640 uM GlcN6P [4]: < 1e-05 s⁻¹ | self-cleavage kobs at 2500 uM GlcN6P [3]: < 1e-05 s⁻¹ | self-cleavage kobs at 10000 uM GlcN6P [5]: < 1e-05 s⁻¹

G7U U30G C50G C61A
self-cleavage kobs at 40 uM GlcN6P [1]: 0.000244 ± 8.9e-05 s⁻¹ | self-cleavage kobs at 10000 uM GlcN6P [5]: 0.000292 ± 7.4e-05 s⁻¹

A15U A36U G60A
self-cleavage kobs at 40 uM GlcN6P [1]: < 1e-05 s⁻¹

G35A A48C
self-cleavage kobs at 40 uM GlcN6P [1]: < 1e-05 s⁻¹ | self-cleavage kobs at 160 uM GlcN6P [2]: < 1e-05 s⁻¹ | self-cleavage kobs at 640 uM GlcN6P [4]: < 1e-05 s⁻¹ | self-cleavage kobs at 2500 uM GlcN6P [3]: < 1e-05 s⁻¹ | self-cleavage kobs at 10000 uM GlcN6P [5]: < 1e-05 s⁻¹

G43A G63U
self-cleavage kobs at 40 uM GlcN6P [1]: < 1e-05 s⁻¹ | self-cleavage kobs at 160 uM GlcN6P [2]: < 1e-05 s⁻¹ | self-cleavage kobs at 640 uM GlcN6P [4]: < 1e-05 s⁻¹

C8U G9A A15C A36G U49C U57G
self-cleavage kobs at 40 uM GlcN6P [1]: < 1e-05 s⁻¹

G44C U54A U57A U65G U69G
self-cleavage kobs at 40 uM GlcN6P [1]: < 1e-05 s⁻¹ | self-cleavage kobs at 10000 uM GlcN6P [5]: < 1e-05 s⁻¹

G37A U57C G59C
self-cleavage kobs at 40 uM GlcN6P [1]: < 1e-05 s⁻¹ | self-cleavage kobs at 10000 uM GlcN6P [5]: < 1e-05 s⁻¹

G9U G29U A42G U65G
self-cleavage kobs at 40 uM GlcN6P [1]: < 1e-05 s⁻¹ | self-cleavage kobs at 10000 uM GlcN6P [5]: < 1e-05 s⁻¹

U31G G66A
self-cleavage kobs at 40 uM GlcN6P [1]: 0.000146 ± 2.4e-05 s⁻¹ | self-cleavage kobs at 640 uM GlcN6P [4]: 0.0011 ± 0.00039 s⁻¹ | self-cleavage kobs at 2500 uM GlcN6P [3]: 0.00151 ± 0.00042 s⁻¹ | self-cleavage kobs at 10000 uM GlcN6P [5]: 0.00839 ± 0.0014 s⁻¹

A1G
self-cleavage kobs at 40 uM GlcN6P [1]: 0.00124 ± 0.00034 s⁻¹ | self-cleavage kobs at 10000 uM GlcN6P [5]: 0.0405 ± 0.014 s⁻¹

G37C A64C C68U
self-cleavage kobs at 40 uM GlcN6P [1]: < 1e-05 s⁻¹ | self-cleavage kobs at 2500 uM GlcN6P [3]: < 1e-05 s⁻¹ | self-cleavage kobs at 10000 uM GlcN6P [5]: < 1e-05 s⁻¹

U31A A36U
self-cleavage kobs at 40 uM GlcN6P [1]: < 1e-05 s⁻¹ | self-cleavage kobs at 160 uM GlcN6P [2]: < 1e-05 s⁻¹ | self-cleavage kobs at 640 uM GlcN6P [4]: < 1e-05 s⁻¹ | self-cleavage kobs at 2500 uM GlcN6P [3]: < 1e-05 s⁻¹ | self-cleavage kobs at 10000 uM GlcN6P [5]: < 1e-05 s⁻¹

G29U U46G C58G C67A
self-cleavage kobs at 40 uM GlcN6P [1]: 4.15e-05 ± 1.9e-05 s⁻¹ | self-cleavage kobs at 10000 uM GlcN6P [5]: 5.63e-05 ± 1.4e-05 s⁻¹

G13C A36G A39U
self-cleavage kobs at 40 uM GlcN6P [1]: < 1e-05 s⁻¹ | self-cleavage kobs at 640 uM GlcN6P [4]: < 1e-05 s⁻¹ | self-cleavage kobs at 2500 uM GlcN6P [3]: < 1e-05 s⁻¹

C16A G51U A64C
self-cleavage kobs at 40 uM GlcN6P [1]: < 1e-05 s⁻¹ | self-cleavage kobs at 2500 uM GlcN6P [3]: < 1e-05 s⁻¹ | self-cleavage kobs at 10000 uM GlcN6P [5]: < 1e-05 s⁻¹

A12U U54C
self-cleavage kobs at 40 uM GlcN6P [1]: 0.00204 ± 0.00025 s⁻¹ | self-cleavage kobs at 160 uM GlcN6P [2]: 0.00477 ± 0.00085 s⁻¹ | self-cleavage kobs at 640 uM GlcN6P [4]: 0.0165 ± 0.0024 s⁻¹ | self-cleavage kobs at 2500 uM GlcN6P [3]: 0.0157 ± 0.0029 s⁻¹ | self-cleavage kobs at 10000 uM GlcN6P [5]: 0.0931 ± 0.024 s⁻¹

G9A C70A
self-cleavage kobs at 40 uM GlcN6P [1]: < 1e-05 s⁻¹ | self-cleavage kobs at 160 uM GlcN6P [2]: < 1e-05 s⁻¹ | self-cleavage kobs at 640 uM GlcN6P [4]: < 1e-05 s⁻¹ | self-cleavage kobs at 2500 uM GlcN6P [3]: < 1e-05 s⁻¹ | self-cleavage kobs at 10000 uM GlcN6P [5]: < 1e-05 s⁻¹

A42G G63C
self-cleavage kobs at 40 uM GlcN6P [1]: < 1e-05 s⁻¹ | self-cleavage kobs at 160 uM GlcN6P [2]: < 1e-05 s⁻¹ | self-cleavage kobs at 640 uM GlcN6P [4]: < 1e-05 s⁻¹ | self-cleavage kobs at 2500 uM GlcN6P [3]: < 1e-05 s⁻¹ | self-cleavage kobs at 10000 uM GlcN6P [5]: < 1e-05 s⁻¹

C11A A12G U65A C67G
self-cleavage kobs at 40 uM GlcN6P [1]: 0.000126 ± 3e-05 s⁻¹ | self-cleavage kobs at 160 uM GlcN6P [2]: 0.000766 ± 0.00026 s⁻¹ | self-cleavage kobs at 640 uM GlcN6P [4]: 0.000193 ± 6.4e-05 s⁻¹ | self-cleavage kobs at 2500 uM GlcN6P [3]: 0.000105 ± 2.9e-05 s⁻¹ | self-cleavage kobs at 10000 uM GlcN6P [5]: 5.83e-05 ± 1.5e-05 s⁻¹

G37U G43U
self-cleavage kobs at 40 uM GlcN6P [1]: < 1e-05 s⁻¹ | self-cleavage kobs at 640 uM GlcN6P [4]: < 1e-05 s⁻¹ | self-cleavage kobs at 10000 uM GlcN6P [5]: < 1e-05 s⁻¹

A12G C16U C34A A39U G60A U69G
self-cleavage kobs at 40 uM GlcN6P [1]: < 1e-05 s⁻¹

G40U C61A G63C
self-cleavage kobs at 40 uM GlcN6P [1]: < 1e-05 s⁻¹ | self-cleavage kobs at 160 uM GlcN6P [2]: < 1e-05 s⁻¹ | self-cleavage kobs at 2500 uM GlcN6P [3]: < 1e-05 s⁻¹

G37U G40A
self-cleavage kobs at 40 uM GlcN6P [1]: < 1e-05 s⁻¹ | self-cleavage kobs at 160 uM GlcN6P [2]: < 1e-05 s⁻¹ | self-cleavage kobs at 640 uM GlcN6P [4]: < 1e-05 s⁻¹ | self-cleavage kobs at 2500 uM GlcN6P [3]: < 1e-05 s⁻¹ | self-cleavage kobs at 10000 uM GlcN6P [5]: < 1e-05 s⁻¹

A36G G37C
self-cleavage kobs at 40 uM GlcN6P [1]: < 1e-05 s⁻¹ | self-cleavage kobs at 160 uM GlcN6P [2]: < 1e-05 s⁻¹ | self-cleavage kobs at 10000 uM GlcN6P [5]: < 1e-05 s⁻¹

C10A C11G
self-cleavage kobs at 40 uM GlcN6P [1]: < 1e-05 s⁻¹ | self-cleavage kobs at 160 uM GlcN6P [2]: < 1e-05 s⁻¹ | self-cleavage kobs at 640 uM GlcN6P [4]: < 1e-05 s⁻¹

A14G C16U U45G C67U
self-cleavage kobs at 40 uM GlcN6P [1]: 0.00026 ± 6.6e-05 s⁻¹ | self-cleavage kobs at 160 uM GlcN6P [2]: 0.000132 ± 3e-05 s⁻¹ | self-cleavage kobs at 640 uM GlcN6P [4]: 0.00248 ± 0.0012 s⁻¹ | self-cleavage kobs at 2500 uM GlcN6P [3]: 0.00988 ± 0.0035 s⁻¹

G13A C16U C67U
self-cleavage kobs at 40 uM GlcN6P [1]: < 1e-05 s⁻¹ | self-cleavage kobs at 2500 uM GlcN6P [3]: 0.000111 ± 2.7e-05 s⁻¹ | self-cleavage kobs at 10000 uM GlcN6P [5]: 0.00025 ± 4.5e-05 s⁻¹

G32U G62U
self-cleavage kobs at 40 uM GlcN6P [1]: < 1e-05 s⁻¹ | self-cleavage kobs at 160 uM GlcN6P [2]: < 1e-05 s⁻¹ | self-cleavage kobs at 640 uM GlcN6P [4]: < 1e-05 s⁻¹ | self-cleavage kobs at 2500 uM GlcN6P [3]: < 1e-05 s⁻¹ | self-cleavage kobs at 10000 uM GlcN6P [5]: < 1e-05 s⁻¹

C34A C61U C67U
self-cleavage kobs at 40 uM GlcN6P [1]: < 1e-05 s⁻¹ | self-cleavage kobs at 10000 uM GlcN6P [5]: < 1e-05 s⁻¹

A14U G40A G51U
self-cleavage kobs at 40 uM GlcN6P [1]: < 1e-05 s⁻¹

G41U G63U
self-cleavage kobs at 40 uM GlcN6P [1]: < 1e-05 s⁻¹ | self-cleavage kobs at 160 uM GlcN6P [2]: < 1e-05 s⁻¹ | self-cleavage kobs at 640 uM GlcN6P [4]: < 1e-05 s⁻¹ | self-cleavage kobs at 2500 uM GlcN6P [3]: < 1e-05 s⁻¹ | self-cleavage kobs at 10000 uM GlcN6P [5]: < 1e-05 s⁻¹

A15G C16G A33G A52G G60A
self-cleavage kobs at 40 uM GlcN6P [1]: < 1e-05 s⁻¹ | self-cleavage kobs at 160 uM GlcN6P [2]: < 1e-05 s⁻¹ | self-cleavage kobs at 10000 uM GlcN6P [5]: < 1e-05 s⁻¹

G51A C58G
self-cleavage kobs at 40 uM GlcN6P [1]: < 1e-05 s⁻¹ | self-cleavage kobs at 10000 uM GlcN6P [5]: < 1e-05 s⁻¹

G32U U46G C61U
self-cleavage kobs at 40 uM GlcN6P [1]: < 1e-05 s⁻¹ | self-cleavage kobs at 2500 uM GlcN6P [3]: < 1e-05 s⁻¹ | self-cleavage kobs at 10000 uM GlcN6P [5]: < 1e-05 s⁻¹

A64G U65C C68A
self-cleavage kobs at 40 uM GlcN6P [1]: < 1e-05 s⁻¹ | self-cleavage kobs at 2500 uM GlcN6P [3]: < 1e-05 s⁻¹ | self-cleavage kobs at 10000 uM GlcN6P [5]: < 1e-05 s⁻¹
